The results in this text go back to paper PMC7383879, “HSI2/VAL1 and HSL1/VAL2 function redundantly to repress DOG1 expression in Arabidopsis seeds and seedlings”.

In the series the target is T1, HSI2 B3 domain (B3HSI2) (Arabidopsis thaliana, UniProt Q8W4L5 295-396).
T1 sequence: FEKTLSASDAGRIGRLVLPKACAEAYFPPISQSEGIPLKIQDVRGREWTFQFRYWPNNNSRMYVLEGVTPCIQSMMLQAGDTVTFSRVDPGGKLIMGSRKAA
Put plainly: EMSA; 10 mM Tris pH 7.9, 30 mM KCl, 0.1 mM EDTA, 1 mM DTT, 0.05% NP-40, 6.5% glycerol, 50 ng/ml (so in the source) poly(dIdC), 50 fmol probe, 20 min at room temperature. To be noted: protein: recombinant; tags: His-Trx (Results); His (Methods, legend); label: 3' biotin; blunt.

B1: RY1 probe (dsDNA)
DNA 1: GTCCTCCACGTAATGCATGCATGCGTTATTTCTTTT
DNA 2: AAAAGAAATAACGCATGCATGCATTACGTGGAGGAC
Take B1: the binding result is given as “binds”.

B2: mRY1 probe (dsDNA)
DNA 1: GTCCTCCACGTAATGGACTACTGCGTTATTTCTTTT
DNA 2: AAAAGAAATAACGCAGTAGTCCATTACGTGGAGGAC
Consider B2, for which the binding result is on record as “no binding”.
